The series in a line: label from the status in PepcDB records.

Consider “MVEADRPGKLFIGGLNTETNEKALEAVFGKYGRIVEVLLMKDRETNKSRGFAFVTFESPADAKDAARDMNGKSLDGKAIKVEQATKPSFE”, for which the protein production entry was “failed”.

For “MVEENQLQSLKDVAKQAPVHRKLDIQEWKTAEGAKVLFVEAHELPMFDLRLTFAAGSSQDAGTPGLSMLTNAMLNEGVPGKDTTAIAAGFEDLGASFSNGSYRDMAVAGLRSLSEADKRTQALKLFEQVIGQPTFPEDALARIKNQVLAGFEYQKQNPGKLAGLELFKRLYGEHPYAHSSDGDEKSVPTISREQLQAFHKKAYAAGNVVIALVGDLSRQEAEAIAAEVSKALPQGPALAKTVQPETPKPGLTHIDFPSEQTHLMLAQLGIDRQDPDYAALYLGNQILGGGGFGTRLMDQVREKRGLTYGIYSGFTAMQARGPFMINFQTRAELSEGALKLVQDIVRDYLANGPTQKELDDAKRELAGSFPLSTASNADIVGQLGAIGFYGLPLDYLESFLKQVEGLSVEQVRTAMAKHLDADAFVIVSAGLEHHHHHH”, the protein production result is “not failed”.

With “MVEFELLRSLGIMLLAALGVVLVARTARVPNIVAYIGAGLLLGPALGVLTVTHTIELIAEFGIILLLFLVGLELSLDKIKAVGTTAFVAGGVQMGGTALGGGLLAGLVGVPVVEAVVVAVAIMFSSTVVVVKMLEKQSDLDAPYGQIAVGVLLVQDLVVVMVLTFVAGLAGPGELAWADVARGLGQAFVGMVLLGGLIAAAARYVLPPAIQWISRMTEGLFIWSLFWCFLVVLGAEALHLSPELGAFLAGIALAQLPQCHELRQRVHPLMNFFIIVFFVSLGLQMELGAALARWPLALALAAFVMVVKPLLFFGVLPRLGHGEETSFRTGLSLAQISEFSLIFGALALSSGLIDEALLSVITLVGLVTFALSSFLLLYSDRLYAAVKPYRPLAWLGARQEAPAPPPDGLQGHVIVVGLNTLGRCLVDRLTAAGETVVAVDTDPEKLARRSVSTVHGNAVHETTREAADWEDAKLVVSSLSIEGTNNLLAYHAQRAGVPCSIHAFDRTSENSLRTFGVDHLIRSKHEGARRLLDELKSRAVLS”, the protein production result is on record as “failed”.

Turning to “MVEGLGRIGFGLFGLAVLIGITWLFSSNRRAIDWKLVATGLALQISFAALVLLVPGGRDVFDALGKGFVKVLSFVNEGSTFIFGNLMNIDSYGFIFAFQVLPTIIFFSALMGVLYHLGVMQMVVRAMAWAITKVMRVSGAETTSVCASVFIGQTEAPLTVRPYIPKMTQSELLTMMIGGMAHIAGGVLAAYVGMLGGSDPAQQAFYAKHLLAASIMAAPATLVVAKLLVPETGTPLTRGTVKMEVEKTTSNVIDAAAAGAGDGLRLALNIGAMLLAFIALIALINAPLTWLGEVTGATALLGRPTNLSTIFGYVLAPIAWVIGTPWVDATTVGSLIGQKVVINEFVAYSELSRIVKGEVRGVGLSAEGRLIATYALCGFANFSSIAIQIGGIGGLAPERRHDLANFGLRAVLGGSIATFMTATIAGVLSHFG”, the protein production entry was “failed”.

Turning to “MVEIIPVSTTLELRAADESHVPALHQLVLKNKAWLQQSLDWPQYVTSQEETRKHVQGNILLHQRGYAKMYLIFCQNEMAGVLSFNAIEPINKAAYIGYWLDESFQGQGIMSQSLQALMTHYARRGDIRRFVIKCRVDNQASNAVARRNHFTLEGCMKQAEYLNGDYHDVNMYARIIDAD”, the protein production entry was “not failed”.

As to “MVEMNKRGQFFIIGGVILSIGLILFFLLGFNSYTSDGSYLTVFKMKDVKNSIESCLINSLTSNSNLSKNLDMLKNNYKDEGIEINYKKIIFSNIRYEAKNLTFNFSLYNGNFSYNISNYGFGGAFNGSLNVSNYVFSKNLLLNISENGSVTGSFNITGSYVNVFVYDRFGNLILNETIYNNSNEKSLYYYILNVSKEGILLYLLWQRMFLTTHWQKMYPL”, the protein production result was “failed”.

As to “MVEPGVAKLTTYASKQATDMGAIYVNSKGDRIVNESNVYTTFRNAILKQADKVAYLVMDERTWKKVYDLLILHDFTPEEIKSFFENKGKRPVFVKGSLESAAEQAGIVVDELVQTVKNYQGYVQDGHDHDFGRDPKYLHQFEGETFYIIEQRLEHHHHHH”, the protein production entry is given as “failed”.

Take “MVESKTKFEEIRKWVSDHKLRTVGCLWLSGITGSIAYNWSQPAMKTSVKIIHARLHAQALTLAALAGAAVVEYYDHKTEATNRYPKFLPPENLSHKD”: the protein production result is listed as “failed”.

For “MVFMANKKKTKGKKTRRPTKAEIERQRAIQRMITALVLTIILFFGIIRLGIFGITVYNVIRFMVGSLAYLFIAATLIYLYFFKWLRKKDSLVAGFLIASLGLLIEWHAYLFSMPILKDKEILRSTARLIVSDLMQFKITVFAGGGMLGALIYKPIAFLFSNIGAYMIGVLFIILGLFLMSSLEVYDIVEFIRAFKNKVAEKHEQNKKERFAKREMKKAIAEQERIERQKAEEEAYLASVNVDPETGEILEDQAEDNLDDALPPEVSETSTPVFEPEILAYETSPQNDPLPVEPTIYLEDYDSPIPNMRENDEEMVYDLDDDVDDSDIENVDFTPKTTLVYKLPTIDLFAPDKPKNQSKEKDLVRKNIRVLEETFRSFGIDVKVERAEIGPSVTKYEIKPAVGVRVNRISNLSDDLALALAAKDVRIETPIPGKSLIGIEVPNSEIATVSFRELWEQSDANPENLLEVPLGKAVNGNARSFNLARMPHLLVAGSTGSGKSVAVNGIISSILMKARPDQVKFMMIDPKMVELSVYNDIPHLLIPVVTNPRKASKALQKVVDEMENRYELFSKIGVRNIAGYNTKVEEFNASSEQKQIPLPLIVVIVDELADLMMVASKEVEDAIIRLGQKARAAGIHMILATQRPSVDVISGLIKANVPSRIAFAVSSGTDSRTILDENGAEKLLGRGDMLFKPIDENHPVRLQGSFISDDDVERIVGFIKDQAEADYDDAFDPGEVSETDNGSGGGGGVPESDPLFEEAKGLVLETQKASASMIQRRLSVGFNRATRLMEELEAAGVIGPAEGTKPRKVLMTPTPSE”, the protein production entry is given as “failed”.

As to “MVGERMWWWSSSSTKLRSNLERFLRGITPKPPSFSLSQSCKNDLNSLWIHENKDEIEYFRLSDLWDCFDEPSAYGLGSKVDLNNGESVMQYYVPYLSAIQIYTNKSTAISRIHSDVVDCESECWSDDSEIEKLSRSMSSGSSKIWDSVSDDSGYEIDGTSSLMRDKLGSIDFQYFESVKPHLRVPLTAKVNELAEKYPGLSTLRSVDLSPASWLAIAWYPIYHIPSRKTDKDLSTCFLSYHTLSSAFQGNLIEGDDEINETMKEETLCFDEGPVTKSIPLAPFGLVSYKLQGDLWRNQECGDQGRIVYLRSAADSWLKQLNVQDHHDHSFFSMNMSL”, the protein production entry is recorded as “failed”.

“MVGKSKSPEFNFEDGMAYFDAVKVALQDTEPEKYQEFVRIFIDYTANRFGFETLSASLQELLRDHANLCHGSNVLLPFRLQTAIPPEASAEFHINKVVGRSVPPAVAVPTMDDATSYLNAVKEAFHDEPAKYMEITKLLTDLKARRINAASVIARMEELLKDHLNLLLGFCVFLSPTRRFITKLKARFLGDGSQVVDSVLQILRMHSEGNKSKDEASQEVRALIQGHEDLLMELSEIFSDP”: the protein production entry is reported as “failed”.

Regarding “MVGRDNVENTAMGEALSPSQISGRVDAVWGNPMAWEAAGWQWERLPAIRRMVNRHVTGDEAIDPLSWFFQRVAKDQTLPVRRALVLACGAGGLERQLISQGWVSEVVAVDLSPGALAAARDAARQAGISGIDYRQADMNALDVEGPFDLAVGSSALHHCENLEGIFAVVRRVLVPGGWFFLNDYIGPNRLQYDAAQVLEVNRLLQCLPDPLVMNAAGFSRRGFRPASLAEVIAFDPSEAPRSADILRVMGEALEVETVRPYGGNLLYLVLSNLAQNFDPAQSGDAAAPDYLRLLIEASDHWRATRHGQDHFAAAIARQPIS”, the protein production result is recorded as “failed”.

Take “MVGRRVSPALTKDDAHSYIIAVKETFHDEPTKYQEFIKLLNGVCDHRVDKYSVIARVEELMKDHQDLLLGFSVFLPPVSVEDFINKLKSKFVHLQTRFQSLDTHVVGAIRGLMKMFKEGKMSVKEVQEEVIDVLFYHEDLIEDFLRFFTKNPVSTASLLLQL”: the protein production entry is listed as “failed”.

Regarding “MVGVRMTKKVLIVEDNELNMKLFHDLLEAQGYETLQTREGLSALSIARENKPDLILMDIQLPEISGLEVTKWLKEDDDLAHIPVVAVTAFAMKGDEERIREGGCEAYISKPISVVHFLETIKRLLERQPA”, the protein production entry is on record as “not failed”.

Consider “MVHTPLNFKFSEKREEWNLRFCRNVGVSIVELVTADASSAYVRGLMAVNGSKVYSILPFISIDAEKAKKAKFPEDRMSGVRGKVIPSVLPEIKGETILDIGCGFGTLTMELAKNNPESQVYGIDLHDSLTGQAEMNAEVLGLPNVEFRTGSAYALPFEKDSIDAVTCFLMLHHLEDIKFALFEIKRVLKKGGSLTAVEPLAHQHHHGPQLSEAEWKELFEEAGFGTETENMEGAVVLRAVKRELEHHHHHH”, for which the protein production entry is reported as “failed”.

Values taken from a protein production outcome set (Wang et al. 2014).
